Experimental data: PMC12674617

B1: full-length BICD2 tagged on the C-terminus with mini-TurboID (BICD2-mTrbo) [human] / Dynein intermediate chain (DYNC1I1) [human (endogenous in HEK293)] (parent)
chain 1: MSAPSEEEEYARLVMEAQPEWLRAEVKRLSHELAETTREKIQAAEYGLAVLEEKHQLKLQFEELEVDYEAIRSEMEQLKEAFGQAHTNHKKVAADGESREESLIQESASKEQYYVRKVLELQTELKQLRNVLTNTQSENERLASVAQELKEINQNVEIQRGRLRDDIKEYKFREARLLQDYSELEEENISLQKQVSVLRQNQVEFEGLKHEIKRLEEETEYLNSQLEDAIRLKEISERQLEEALETLKTEREQKNSLRKELSHYMSINDSFYTSHLHVSLDGLKFSDDAAEPNNDAEALVNGFEHGGLAKLPLDNKTSTPKKEGLAPPSPSLVSDLLSELNISEIQKLKQQLMQMEREKAGLLATLQDTQKQLEHTRGSLSEQQEKVTRLTENLSALRRLQASKERQTALDNEKDRDSHEDGDYYEVDINGPEILACKYHVAVAEAGELREQLKALRSTHEAREAQHAEEKGRYEAEGQALTEKVSLLEKASRQDRELLARLEKELKKVSDVAGETQGSLSVAQDELVTFSEELANLYHHVCMCNNETPNRVMLDYYREGQGGAGRTSPGGRTSPEARGRRSPILLPKGLLAPEAGRADGGTGDSSPSPGSSLPSPLSDPRREPMNIYNLIAIIRDQIKHLQAAVDRTTELSRQRIASQELGPAVDKDKEALMEEILKLKSLLSTKREQITTLRTVLKANKQTAEVALANLKSKYENEKAMVTETMMKLRNELKALKEDAATFSSLRAMFATRCDEYITQLDEMQRQLAAAEDEKKTLNSLLRMAIQQKLALTQRLELLELDHEQTRRGRAKAAPKTKPATPSL
chain 2: MSDKSDLKAELERKKQRLAQIREEKKRKEEERKKKEADMQQKKEPVQDDSDLDRKRRETEALLQSIGISPEPPLVQPLHFLTWDTCYFHYLVPTPMSPSSKSVSTPSEAGSQDSGDLGPLTRTLQWDTDPSVLQLQSDSELGRRLHKLGVSKVTQVDFLPREVVSYSKETQTPLATHQSEEDEEDEEMVESKVGQDSELENQDKKQEVKEAPPRELTEEEKQQILHSEEFLIFFDRTIRVIERALAEDSDIFFDYSGRELEEKDGDVQAGANLSFNRQFYDEHWSKHRVVTCMDWSLQYPELMVASYNNNEDAPHEPDGVALVWNMKFKKTTPEYVFHCQSSVMSVCFARFHPNLVVGGTYSGQIVLWDNRSHRRTPVQRTPLSAAAHTHPVYCVNVVGTQNAHNLITVSTDGKMCSWSLDMLSTPQESMELVYNKSKPVAVTGMAFPTGDVNNFVVGSEEGTVYTACRHGSKAGIGEVFEGHQGPVTGINCHMAVGPIDFSHLFVTSSFDWTVKLWTTKHNKPLYSFEDNADYVYDVMWSPVHPALFACVDGMGRLDLWNLNNDTEVPTASVAIEGASALNRVRWAQAGKEVAVGDSEGRIWVYDVGELAVPHNDEWTRFARTLVEIRANRADSEEEGTVELSA

Variants of: B1
Test: co-immunoprecipitation (V5 trap beads) with western blot quantification
Conditions: parent: 1, read off a plot

ratio to parent | Variant
1.8 | chain 1 N188T
4.6 | chain 1 R747C
5.1 | chain 1 R694C
